Test [1] concerns the target purified cynomolgus CD45 ectodomain (cynomolgus monkey). As to the kind of experiment: BLI (Octet Red96), antibody on anti-human Fc sensor, 300 nM cynomolgus CD45 ectodomain, 1:1 fit. Background: Biolayer interferometry detects binding as a change in optical thickness at a sensor tip.
The target is the same in test [2]. As to the kind of experiment: BLI (Octet Red96), Table 11; the sentence does not name the species of CD45.
In test [3] the target is purified rhesus CD45 ectodomain (rhesus macaque). Briefly: BLI (Octet Red96), IgG on anti-human Fc sensor, 50 nM CD45 ectodomain, 1:1 fit.
Sequence of purified rhesus CD45 ectodomain (rhesus macaque) (chain, as listed by the source limits assumed, form in doubt): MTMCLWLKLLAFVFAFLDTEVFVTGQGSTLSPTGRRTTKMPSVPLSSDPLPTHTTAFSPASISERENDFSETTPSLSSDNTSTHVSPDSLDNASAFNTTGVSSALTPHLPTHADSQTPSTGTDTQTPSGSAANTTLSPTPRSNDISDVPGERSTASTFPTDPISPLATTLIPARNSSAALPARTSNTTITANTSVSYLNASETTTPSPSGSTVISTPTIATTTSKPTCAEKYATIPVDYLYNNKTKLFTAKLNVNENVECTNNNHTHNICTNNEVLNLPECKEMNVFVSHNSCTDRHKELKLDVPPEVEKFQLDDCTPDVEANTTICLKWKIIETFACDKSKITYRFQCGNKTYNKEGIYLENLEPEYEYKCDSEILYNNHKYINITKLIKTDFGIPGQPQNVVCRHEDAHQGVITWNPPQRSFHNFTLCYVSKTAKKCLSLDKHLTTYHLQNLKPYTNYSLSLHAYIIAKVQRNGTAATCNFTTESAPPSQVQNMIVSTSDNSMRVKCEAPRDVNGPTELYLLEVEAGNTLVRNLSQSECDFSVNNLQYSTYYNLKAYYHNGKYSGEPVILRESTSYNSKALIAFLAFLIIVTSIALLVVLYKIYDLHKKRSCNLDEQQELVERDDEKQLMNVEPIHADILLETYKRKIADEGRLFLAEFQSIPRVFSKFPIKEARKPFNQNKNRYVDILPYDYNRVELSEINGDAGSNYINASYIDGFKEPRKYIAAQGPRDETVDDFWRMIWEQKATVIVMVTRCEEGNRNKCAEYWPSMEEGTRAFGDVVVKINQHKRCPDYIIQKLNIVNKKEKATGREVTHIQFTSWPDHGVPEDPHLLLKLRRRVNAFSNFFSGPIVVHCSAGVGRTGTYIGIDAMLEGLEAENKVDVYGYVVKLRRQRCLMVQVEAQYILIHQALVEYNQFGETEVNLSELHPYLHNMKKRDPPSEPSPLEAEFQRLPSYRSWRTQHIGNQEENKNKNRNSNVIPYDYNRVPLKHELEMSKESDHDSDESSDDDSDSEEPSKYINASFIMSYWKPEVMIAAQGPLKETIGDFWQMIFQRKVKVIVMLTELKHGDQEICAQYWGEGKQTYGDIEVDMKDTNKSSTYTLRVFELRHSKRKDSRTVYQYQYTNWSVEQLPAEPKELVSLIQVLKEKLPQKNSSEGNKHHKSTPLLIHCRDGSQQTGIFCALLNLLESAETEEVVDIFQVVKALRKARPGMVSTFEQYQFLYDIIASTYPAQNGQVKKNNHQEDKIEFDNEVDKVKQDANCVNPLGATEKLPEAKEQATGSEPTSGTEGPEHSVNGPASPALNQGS
Test [4] addresses purified cynomolgus CD45 ectodomain (cynomolgus monkey). The description is as above.

Sequence of purified cynomolgus CD45 ectodomain (cynomolgus monkey) (chain, as listed by the source limits assumed, form in doubt): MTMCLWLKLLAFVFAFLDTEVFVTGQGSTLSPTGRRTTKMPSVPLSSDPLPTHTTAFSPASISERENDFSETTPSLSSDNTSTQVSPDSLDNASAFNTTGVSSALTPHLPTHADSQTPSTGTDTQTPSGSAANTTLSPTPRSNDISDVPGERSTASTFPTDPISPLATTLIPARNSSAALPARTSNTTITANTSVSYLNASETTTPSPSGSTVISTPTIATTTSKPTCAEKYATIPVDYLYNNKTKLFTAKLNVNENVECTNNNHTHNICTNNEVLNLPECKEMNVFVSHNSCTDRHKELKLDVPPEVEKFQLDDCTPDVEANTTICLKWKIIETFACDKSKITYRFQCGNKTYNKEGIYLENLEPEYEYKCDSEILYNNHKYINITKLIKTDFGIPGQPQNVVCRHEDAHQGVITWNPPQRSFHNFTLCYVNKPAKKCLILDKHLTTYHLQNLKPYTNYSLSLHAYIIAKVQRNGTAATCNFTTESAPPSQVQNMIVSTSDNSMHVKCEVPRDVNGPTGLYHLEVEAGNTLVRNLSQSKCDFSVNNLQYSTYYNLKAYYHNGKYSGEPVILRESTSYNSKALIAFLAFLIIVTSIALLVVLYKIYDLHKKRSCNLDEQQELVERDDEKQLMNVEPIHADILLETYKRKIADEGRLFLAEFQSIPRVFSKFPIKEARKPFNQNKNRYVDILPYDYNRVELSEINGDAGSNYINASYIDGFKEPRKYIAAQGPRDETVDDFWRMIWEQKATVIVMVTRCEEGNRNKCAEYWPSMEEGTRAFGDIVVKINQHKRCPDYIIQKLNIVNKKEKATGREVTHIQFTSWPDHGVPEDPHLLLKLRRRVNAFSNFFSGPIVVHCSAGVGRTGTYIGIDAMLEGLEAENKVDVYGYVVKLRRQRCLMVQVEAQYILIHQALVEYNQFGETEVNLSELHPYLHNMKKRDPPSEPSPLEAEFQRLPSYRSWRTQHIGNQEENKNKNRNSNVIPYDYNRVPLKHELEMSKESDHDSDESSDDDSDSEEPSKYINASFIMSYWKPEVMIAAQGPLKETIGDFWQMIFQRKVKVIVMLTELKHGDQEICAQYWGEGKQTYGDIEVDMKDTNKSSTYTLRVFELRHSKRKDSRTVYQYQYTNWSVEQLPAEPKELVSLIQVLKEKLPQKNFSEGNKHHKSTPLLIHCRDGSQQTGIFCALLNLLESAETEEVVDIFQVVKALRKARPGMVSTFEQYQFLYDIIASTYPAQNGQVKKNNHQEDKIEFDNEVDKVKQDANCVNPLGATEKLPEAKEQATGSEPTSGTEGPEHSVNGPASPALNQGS

B1: Antibody A (AbA) (antibody, V domains shown)
VH: EVQLLESGGGLVQPGGSLRLSCAASGFTFNNYWMTWVRQAPGKGLEWVSSISSSGGSIYYPDRVKGRFTISRDNSKNTLYLQMNSLRAEDTAVYYCARDERWAGAMDAWGQGTTVTVSS
VL: DIQMTQSPSSLSASVGDRVTITCKASQNINKNLDWYQQKPGKAPKLLIYETNNLQTGVPSRFSGSGSGTDFTLTISSLQPEDFATYYCYQHNSRFTFGQGTKLEIK
For the molecule B1, in test [1], the Kd is 34.1 nM, the koff was found to be 0.000322 s⁻¹ and the association rate constant (kon) came out at 9440 M⁻¹ s⁻¹.

B2: Antibody C (AbC) (antibody, IgG1, V domains shown)
VH: EVQLVESGGGLVQPGGSLRLSCAASGFTFNNYWMTWVRQAPGKGLEWVSSISSSGGSIYYPDSVKDRFTISRDNAKNSLYLQMNSLRAEDMAVYYCARLYYYDGGGDAWGQGTLVTVSS
VL: GIQMTQSPSSLSASVGDRVTITCKASQDINKYLDWYQQKPGKAPKLLIYNTNNLHTGIPSRFSGSGSGTDYTLTISSLQPEDFATYYCLQHISRWTFGGGTKVEIK
Turning to B2, the fold improved affinity over the parent clone C in test [2] is more than 4 fold. In test [1], this molecule displayed a Kd of 25.3 nM, a koff of 0.000282 s⁻¹ and a kon of 11100 M⁻¹ s⁻¹.

B3: Antibody B (AbB) (antibody, IgG1, V domains shown)
VH: EVQLVESGGGLVQPGGSLRLSCAASGFTFTNFWMAWIRQAPGKGLEWVASISSSGGSIYYPDSVKDRFTISRDNSKNTLYLQMNSLRAEDTAVYYCVKFHHYSGGGDAWGQGTLVTVSS
VL: DIQMTQSPSSLSASVGDRVTITCKASQNINKYLDWYQQKPGKAPKLLIHYTNNLHTGIPSRFSGSGSGTDYTLTISSLQPEDFATYYCLQHSSRWTFGGGTKVEIK
In test [1], B3 came in with a Kd of 51.5 nM, an off-rate constant (koff) of 0.00042 s⁻¹ and an on-rate (kon) of 8160 M⁻¹ s⁻¹.

B4: Antibody 2 (Ab2) (antibody, V domains shown)
VH: EVQLVESGGGLVQPGGSLRLSCAASGFTFEAYSMNWVRQAPGKGLEWVSYISLSGATIHYADSVKGRFTISRDNAKNSLYLQMNSLRAEDTAVYYCARGGQYYYDSSDYGEVAFDIWGQGTMVTVSS
VL: DIVMTQSPLSLPVTPGEPASISCRSSQSLVSNGYNYLDWYLQKPGQSPQLLIYFGSSRASGVPDRFSGSGSGTDFTLKISRVEAEDVGVYYCMQRRRTPWSFGGGTKVEIK
In test [3], B4 returned a dissociation constant Kd of 1.42 nM, a koff of 0.000192 s⁻¹ and a kon of 135000 M⁻¹ s⁻¹. Besides, in test [4], the Kd was found to be 1.08 nM, the koff came to 0.000129 s⁻¹ and the kon turned out to be 119000 M⁻¹ s⁻¹.

B5: Antibody 4 (Ab4) (antibody, V domains shown)
VH: EVQLVESGGGLVQPGGSLRLSCAASGFTFEAYSMNWVRQAPGKGLEWVSYISLSGATIHYADSVKGRFTISRDNAKNSLYLQMNSLRAEDTAVYYCARGGQYYYTSSDYGEVAFDIWGQGTMVTVSS
VL: DIVMTQSPLSLPVTPGEPASISCRSSQSLVSNGYNYLDWYLQKPGQSPQLLIYFGSSRASGVPDRFSGSGSGTDFTLKISRVEAEDVGVYYCMQRRRTPWSFGGGTKVEIK
For B5, in test [3], the equilibrium dissociation constant (Kd) amounted to 0.867 nM, the koff was found to be 0.000102 s⁻¹ and the kon came out at 118000 M⁻¹ s⁻¹. Moreover, in test [4], the Kd is 0.721 nM, the dissociation rate constant (koff) worked out at 7.89e-05 s⁻¹ and the kon was determined as 110000 M⁻¹ s⁻¹.

B6: Antibody 3 (Ab3) (antibody, V domains shown)
VH: QVQLVESGGGLVKPGGSLRLSCAASGFTFGGYSMNWVRQAPGKGLEWVSYISISGATITYADSVKGRFTISRDNAKNSLYLQMNSLRAEDTAVYYCARGGQYYYDSSDYGEVAFDIWGQGTMVTVSS
VL: DIVMTQSPLSLPVTPGEPASISCRSSQSLVSNGYNYLDWYLQKPGQSPQLLIYFGSSRASGVPDRFSGSGSGTDFTLKISRVEAEDVGVYYCMQRRRTPPFTFGGGTKVEIK
In test [3], B6 yielded a Kd of 1.65 nM, a koff of 0.000222 s⁻¹ and a kon of 135000 M⁻¹ s⁻¹. For the same molecule, in test [4], the Kd amounted to 1.61 nM, the koff turned out to be 0.000192 s⁻¹ and the on-rate constant (kon) came out at 120000 M⁻¹ s⁻¹.

B7: Antibody 6 (Ab6) (antibody, V domains shown)
VH: EVQLVESGGGLVQPGGSLRLSCAASGFTFEAYSMNWVRQAPGKGLEWVSYISLSGATIHYADSVKGRFTISRDNAKNSLYLQMNSLRAEDTAVYYCARGGQYYYTSSDYGEVAFDIWGQGTLVTVSS
VL: DIVLTQSPLSLPVTPGEPASISCRSSQSLVSSGYNYLDWYLQKPGQSPQLLIYFGSSRASGVPDRFSGSGSGTDFTLKISRVEAEDVGVYYCMQRRRTPWSFGGGTKVEIK
In test [3], B7 registered a Kd of 1.44 nM, a koff of 0.000175 s⁻¹ and an on-rate constant (kon) of 122000 M⁻¹ s⁻¹. Besides, in test [4], the Kd came out at 1.3 nM, the koff was found to be 0.000154 s⁻¹ and the kon was 118000 M⁻¹ s⁻¹.

B8: Antibody 5 (Ab5) (antibody, V domains shown)
VH: EVQLVESGGGLVQPGGSLRLSCAASGFTFEAYSMNWVRQAPGKGLEWVSYISLSGATIHYADSVKGRFTISRDNAKNSLYLQMNSLRAEDTAVYYCARGGQYYYTSSDYGEVAFDIWGQGTMVTVSS
VL: DIVMTQSPLSLPVTPGEPASISCRSSQSLVSSGYNYLDWYLQKPGQSPQLLIYFGSSRASGVPDRFSGSGSGTDFTLKISRVEAEDVGVYYCMQRRRTPWSFGGGTKVEIK
In test [3], B8 displayed a dissociation constant (Kd) of 1.71 nM, a koff of 0.000193 s⁻¹ and a kon of 113000 M⁻¹ s⁻¹. In test [4], this molecule came in with a Kd of 1.4 nM, a koff of 0.000164 s⁻¹ and a kon of 117000 M⁻¹ s⁻¹.

B9: Antibody 7 (Ab7) (antibody, V domains shown)
VH: QVQLVESGGGLVKPGGSLRLSCAASGFTFGGYSMNWVRQAPGKGLEWVSYISISGATITYADSVKGRFTISRDNAKNSLYLQMNSLRAEDTAVYYCARGGQYYYDSSDYGEVAFDIWGQGTMVTVSS
VL: DIVMTQSPLSLPVTPGEPASISCRSSQSLVSSGYNYLDWYLQKPGQSPQLLIYFGSSRASGVPDRFSGSGSGTDFTLKISRVEAEDVGVYYCMQRRRTPPFTFGGGTKVEIK
In test [3], B9 showed a dissociation constant (Kd) of 4.39 nM, a koff of 0.000544 s⁻¹ and a kon of 124000 M⁻¹ s⁻¹. In test [4], this molecule returned a Kd of 4.24 nM, an off-rate (koff) of 0.000537 s⁻¹ and an association rate constant (kon) of 127000 M⁻¹ s⁻¹.

Usually Kd stands for the constant that tells how readily two partners part at equilibrium. The low end stands for tighter binding, the high end for weaker binding. What is called koff is a measure of how fast the partners let go of each other. Read a high koff as a short-lived complex. A word on the kon: it is the rate constant with which the complex forms.

(Values after patent publication US20220267441A1.)
